In US20240116985A1 (published 2024):
Starred links: 1 amine or outer side, 2 acyl side, 3 side chain; linkers in the order of their positions; H or OH if unused. Positions of bridges follow the written chain, without caps; N, C: chain ends. Non-standard residues stand in square brackets, D forms with d. Primed or numbered codes have the meaning given here. B5(4) = 2,2-bis(4-pentenyl)glycine = 2-amino-2-(pent-4-en-1-yl)hept-6-enoic acid (stitching residue), C=CCCCC(CCCC=C)(N[*:1])C(=O)[*:2]; PyrS(3) = (S)-1-((allyloxy)carbonyl)-3-aminopyrrolidine-3-carboxylic acid, stapling residue, C=CCOC(=O)N1CC[C@@](N[*:1])(C(=O)[*:2])C1; B5(33) = 2-amino-2-(pent-4-en-1-yl)hept-6-enoic acid (bis-pentenylglycine, two olefin side chains), C=CCCCC(CCCC=C)(N[*:1])C(=O)[*:2]; PyrS″ = (S)-1-((allyloxy)carbonyl)-3-aminopyrrolidine-3-carboxylic acid (stapling residue), C=CCOC(=O)N1CC[C@@](N[*:1])(C(=O)[*:2])C1; SeN = (S)-5-(((allyloxy)carbonyl)(methyl)amino)-2-amino-2-methylpentanoic acid, C=CCOC(=O)N(C)CCC[C@](C)(N[*:1])C(=O)[*:2]; PyrS = (S)-1-((allyloxy)carbonyl)-3-aminopyrrolidine-3-carboxylic acid, C=CCOC(=O)N1CC[C@@](N[*:1])(C(=O)[*:2])C1; Phe(3-CONH2) = NC(=O)c1cccc(C[C@H](N)C(=O)O)c1; Phe(4-COOH) = N[C@@H](Cc1ccc(C(=O)O)cc1)C(=O)O; Phe(2-CONH2) = NC(=O)c1ccccc1C[C@H](N)C(=O)O; Phe(3-OMe) = COc1cccc(C[C@H](N)C(=O)O)c1; 1Nal = N[C@@H](Cc1cccc2ccccc12)C(=O)O; 2Nal = N[C@@H](Cc1ccc2ccccc2c1)C(=O)O; hTyr = N[C@@H](CCc1ccc(O)cc1)C(=O)O; αAllylPro = C=CC[C@@]1(C(=O)O)CCCN1; hPhe = N[C@@H](CCc1ccccc1)C(=O)O; R8 = C=CCCCCCC[C@@](C)(N)C(=O)O; S8 = C=CCCCCCC[C@](C)(N)C(=O)O

T1: full-length beta-Catenin (Uniprot ID P35222) (Homo sapiens (Human), UniProt P35222 2-781)
T1 construct: also called B-Catenin; bCat
T1 sequence: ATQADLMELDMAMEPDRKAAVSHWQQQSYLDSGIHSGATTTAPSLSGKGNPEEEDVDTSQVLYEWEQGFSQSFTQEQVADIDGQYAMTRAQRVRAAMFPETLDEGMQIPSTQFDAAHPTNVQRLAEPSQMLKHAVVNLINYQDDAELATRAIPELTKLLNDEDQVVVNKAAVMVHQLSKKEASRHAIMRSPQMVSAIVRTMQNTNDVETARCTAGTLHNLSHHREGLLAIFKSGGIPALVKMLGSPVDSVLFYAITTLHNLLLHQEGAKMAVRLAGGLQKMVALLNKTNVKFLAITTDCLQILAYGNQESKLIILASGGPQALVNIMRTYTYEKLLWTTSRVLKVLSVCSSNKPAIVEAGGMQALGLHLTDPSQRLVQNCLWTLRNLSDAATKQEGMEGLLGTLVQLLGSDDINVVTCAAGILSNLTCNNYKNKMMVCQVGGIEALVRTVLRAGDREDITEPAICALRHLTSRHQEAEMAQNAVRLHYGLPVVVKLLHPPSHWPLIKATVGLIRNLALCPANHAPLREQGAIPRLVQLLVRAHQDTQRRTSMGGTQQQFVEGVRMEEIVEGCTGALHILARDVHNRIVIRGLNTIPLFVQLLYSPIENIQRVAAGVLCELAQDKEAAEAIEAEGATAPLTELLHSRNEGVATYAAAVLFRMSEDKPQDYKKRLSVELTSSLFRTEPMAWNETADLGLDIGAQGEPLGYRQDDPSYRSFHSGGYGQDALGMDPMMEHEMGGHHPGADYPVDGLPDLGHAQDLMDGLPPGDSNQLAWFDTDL

B1: I-111 (peptide)
peptide: Ac-FDA[R8]DDAAFV[PyrS″][Phe(4-COOH)]WQ-NH2
modifications: staple 4-11
notes: Stapled peptide composition; same description as I-110, separate later-eluting HPLC peak (staple isomer)
B2: I-102 (peptide)
peptide: Ac-FDA[R8]DDAAFV[PyrS″][Phe(3-OMe)]WQ-NH2
modifications: staple 4-11; not fully specified; printed as Ac-Phe-Asp-Ala-R8-Asp-Asp-Ala-Ala-Phe-Val-PyrS-3OMeF-Trp-Gln-NH2
notes: Stapled peptide composition
B3: I-106 (peptide)
peptide: Ac-FDA[R8]DDAAFV[PyrS][Phe(2-CONH2)]WQ-NH2
modifications: staple 4-11; not fully specified; printed as Ac-Phe-Asp-Ala-R8-Asp-Asp-Ala-Ala-Phe-Val-PyrS-2CBMF-Trp-Gln-NH2
notes: Stapled peptide composition
B4: I-130 (peptide)
peptide: Ac-[αAllylPro]DA[B5(4)]DEAAFV[SeN]FWQ-NH2
modifications: staple 1-4, 4-11
notes: Stitched (two-staple) peptide composition
B5: I-109 (peptide)
peptide: Ac-FDA[R8]DDAA[Phe(3-CONH2)]V[PyrS″]FWQ-NH2
modifications: staple 4-11; not fully specified; printed as Ac-Phe-Asp-Ala-R8-Asp-Asp-Ala-Ala-3CBMF-Val-PyrS-Phe-Trp-Gln-NH2
notes: Stapled peptide composition
B6: I-110 (peptide)
peptide: Ac-FDA[R8]DDAAFV[PyrS″][Phe(4-COOH)]WQ-NH2
modifications: staple 4-11; not fully specified; printed as Ac-Phe-Asp-Ala-R8-Asp-Asp-Ala-Ala-Phe-Val-PyrS-4COOHF-Trp-Gln-NH2
notes: Stapled peptide composition
B7: I-105 (peptide)
peptide: Ac-FDA[R8]DDAAFV[PyrS″][Phe(2-CONH2)]WQ-NH2
modifications: staple 4-11; not fully specified; printed as Ac-Phe-Asp-Ala-R8-Asp-Asp-Ala-Ala-Phe-Val-PyrS-2CBMF-Trp-Gln-NH2
notes: Stapled peptide composition
B8: I-124 (peptide)
peptide: XDAXDNAAFVXFWQ
modifications: not fully specified; as printed: Ac-PL3-Asp-Ala-B5-Asp-Asn-Ala-Ala-Phe-Val-S8-Phe-Trp-Gln-NH2; staples PL3(1)-B5(4) and B5(4)-S8(11)
notes: as for B4
B9: I-126 (peptide)
peptide: Ac-[αAllylPro]DA[B5(33)]DQAAFV[S8]FWQ-NH2
modifications: staple 1-4, 4-11
notes: as for B4
B10: I-97 (peptide)
peptide: Ac-FDA[R8]D[hPhe]AAFV[PyrS″]FWQ-NH2
modifications: staple 4-11; not fully specified; printed as Ac-Phe-Asp-Ala-R8-Asp-hPhe-Ala-Ala-Phe-Val-PyrS-Phe-Trp-Gln-NH2
notes: Stapled peptide composition; same description as I-98, separate earlier-eluting HPLC peak (staple isomer)
B11: I-119 (peptide)
peptide: Ac-FDA[R8]DDAA[hTyr]V[PyrS(3)]FWQ-NH2
modifications: staple 4-11
notes: Stapled peptide composition; same description as I-120, separate earlier-eluting HPLC peak (staple isomer)
B12: I-108 (peptide)
peptide: Ac-FDA[R8]DDAA[Phe(3-CONH2)]V[PyrS″]FWQ-NH2
modifications: staple 4-11; not fully specified; printed as Ac-Phe-Asp-Ala-R8-Asp-Asp-Ala-Ala-3CBMF-Val-PyrS-Phe-Trp-Gln-NH2
notes: Stapled peptide composition

The binders below were run against T1, full-length beta-Catenin (Uniprot ID …) (assay: Alphascreen competition; biotin-TCF4(10-53) probe with full-length beta-catenin).
Method: Equal volume of the titrated peptide was added to the plate and incubated for 15 minutes at 20° C. Then 4 uL of donor and 4 uL acceptor beads at 10 ug/mL were added to the plate, for a 16 uL reaction pool and protected from light for 60 minutes at 20° C. prior to read. Reads were performed on a CLARIOstar plate reader (BMG Labtech) in duplicate, and data were fitted to a 1:1 binding model with hill slope using an in-house script. All provided concentrations are final concentrations.

EC50 [µM]	Binder
7.64	B1
≥ 10	B2
≥ 10	B3
4.55	Ac-FDA[R8]DDAA[hTyr]V[PyrS(3)]FWQ-NH2 (staple 4-11, Stapled peptide composition) [I-120]
0.797	B4
8.82	B5
8.5	B6
≥ 10	Ac-FDA[R8]DDAA[hPhe]V[PyrS″]FWQ-NH2 (staple 4-11; also: earlier-eluting HPLC peak (staple isomer), Stapled peptide composition) [I-117]
4.78	Ac-FDA[R8]D[2Nal]AAFV[PyrS″]FWQ-NH2 (staple 4-11; also: earlier-eluting HPLC peak (staple isomer), Stapled peptide composition) [I-115]
≥ 10	B7
≥ 10	Ac-FDA[R8]DDAAFV[PyrS″][Phe(3-CONH2)]WQ-NH2 (staple 4-11, Stapled peptide composition) [I-107]
1.28	B8
1.48	B9
7.01	B10
4.74	Ac-FDA[R8]D[1Nal]AAFV[PyrS″]FWQ-NH2 (staple 4-11, Stapled peptide composition) [I-114]
4.94	B11
≥ 10	B12
